Data on 1 molecule can be found in PMC2289750 (The Journal of Cell Biology, 1992).

The target of this experiment is T1, zyxin (chicken, UniProt Q04584 1-542, 125I (radioiodinated using Iodogen)).
T1 sequence (looked up): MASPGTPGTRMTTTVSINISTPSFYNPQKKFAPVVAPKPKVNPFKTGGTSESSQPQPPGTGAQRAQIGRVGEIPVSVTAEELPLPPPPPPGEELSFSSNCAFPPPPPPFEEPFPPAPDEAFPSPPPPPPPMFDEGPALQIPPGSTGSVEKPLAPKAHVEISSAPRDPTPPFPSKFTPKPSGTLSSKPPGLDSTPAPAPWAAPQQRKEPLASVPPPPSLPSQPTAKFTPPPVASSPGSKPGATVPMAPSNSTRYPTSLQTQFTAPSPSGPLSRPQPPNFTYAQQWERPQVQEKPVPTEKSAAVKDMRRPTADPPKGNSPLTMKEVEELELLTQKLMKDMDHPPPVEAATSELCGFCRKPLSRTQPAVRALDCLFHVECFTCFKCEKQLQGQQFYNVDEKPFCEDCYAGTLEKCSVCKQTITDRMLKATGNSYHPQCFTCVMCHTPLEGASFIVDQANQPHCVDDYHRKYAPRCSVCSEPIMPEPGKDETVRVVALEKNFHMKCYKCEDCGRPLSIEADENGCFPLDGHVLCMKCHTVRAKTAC
Kind of experiment: far-Western, overlay or dot blot.

B1: chicken Cysteine-Rich Protein (cCRP) (natural protein)
chain: MPNWGGGKKCGVCQKAVYFAEEVQCEGSSFHKSCFLCMVCKKNLDSTTVAVHGDEIYCKSCYGKKYGPKGYGYGMGAGTLSTDKGESLGIKYEEGQSHRPTNPNASRMAQKVGGSDGCPRCGQAVYAAEKVIGAGKSWHKSCFRCAKCGKSLESTTLADKDGEIYCKGCYAKNFGPKGFGFGQGAGALIHSQ
For the molecule B1, the binding result is listed as “binds”.
